Experimental data: PMC3823998, “Structural and Functional Characterization of the Redβ Recombinase from Bacteriophage λ” (PLoS ONE, 2013)

Tests used:
Assay in all cases: EMSA; glutaraldehyde-fixed; ssDNA EMSA: 10 nM DNA, 50 mM potassium phosphate pH 6.0, 5 mM EDTA, 5% glycerol, 0.1 mg/ml BSA, 37°C, 40 min, then 0.1% glutaraldehyde; second-strand EMSA: 5 nM each strand, 20 mM Tris-HCl pH 7.5, 5 mM MgCl2, 1 mM DTT, 0.1 mg/ml BSA, 37°C
Conditions in all cases: protein: recombinant; tags: His6 removed; N-terminal GSH left; label: 5' Cy3
[1] = biological target: T1, Redβ K132A (Bacteriophage λ (Enterobacteria phage λ), UniProt P03698 1-261, K132A)
T1 sequence: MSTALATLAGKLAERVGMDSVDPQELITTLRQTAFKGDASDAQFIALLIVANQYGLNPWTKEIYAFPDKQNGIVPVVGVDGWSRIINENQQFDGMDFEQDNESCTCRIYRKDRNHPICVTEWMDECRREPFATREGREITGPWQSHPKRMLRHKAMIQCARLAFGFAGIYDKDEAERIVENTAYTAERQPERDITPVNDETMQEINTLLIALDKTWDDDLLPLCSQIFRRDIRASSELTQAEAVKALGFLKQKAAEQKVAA

[2] = biological target: T2, Redβ V79A (Bacteriophage λ (Enterobacteria phage λ), UniProt P03698 1-261, V79A)
T2 sequence: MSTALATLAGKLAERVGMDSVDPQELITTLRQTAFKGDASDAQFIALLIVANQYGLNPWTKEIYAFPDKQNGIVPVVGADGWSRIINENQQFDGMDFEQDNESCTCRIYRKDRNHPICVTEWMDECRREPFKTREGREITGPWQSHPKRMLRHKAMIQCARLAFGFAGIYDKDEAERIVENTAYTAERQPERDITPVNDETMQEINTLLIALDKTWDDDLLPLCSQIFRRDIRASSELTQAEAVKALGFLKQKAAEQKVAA

[3] = biological target: T3, Redβ R149A (Bacteriophage λ (Enterobacteria phage λ), UniProt P03698 1-261, R149A)
T3 sequence: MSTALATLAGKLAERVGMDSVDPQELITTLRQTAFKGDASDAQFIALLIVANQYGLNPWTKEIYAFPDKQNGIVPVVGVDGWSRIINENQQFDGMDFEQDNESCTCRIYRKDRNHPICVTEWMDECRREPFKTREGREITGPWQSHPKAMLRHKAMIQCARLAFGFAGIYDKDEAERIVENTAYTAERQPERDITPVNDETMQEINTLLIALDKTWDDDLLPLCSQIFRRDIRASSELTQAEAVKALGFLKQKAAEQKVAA

[4] = biological target: T4, Redβ R152A (Bacteriophage λ (Enterobacteria phage λ), UniProt P03698 1-261, R152A)
T4 sequence: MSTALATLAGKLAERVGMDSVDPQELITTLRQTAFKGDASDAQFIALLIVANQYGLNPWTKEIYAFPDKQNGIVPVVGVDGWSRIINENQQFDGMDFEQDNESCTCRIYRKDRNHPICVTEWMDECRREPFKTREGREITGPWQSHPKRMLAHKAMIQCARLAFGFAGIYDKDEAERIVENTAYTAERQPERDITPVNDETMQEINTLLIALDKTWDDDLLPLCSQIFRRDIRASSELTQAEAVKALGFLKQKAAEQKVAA

[5] = biological target: T5, Redβ D80A (Bacteriophage λ (Enterobacteria phage λ), UniProt P03698 1-261, D80A)
T5 sequence: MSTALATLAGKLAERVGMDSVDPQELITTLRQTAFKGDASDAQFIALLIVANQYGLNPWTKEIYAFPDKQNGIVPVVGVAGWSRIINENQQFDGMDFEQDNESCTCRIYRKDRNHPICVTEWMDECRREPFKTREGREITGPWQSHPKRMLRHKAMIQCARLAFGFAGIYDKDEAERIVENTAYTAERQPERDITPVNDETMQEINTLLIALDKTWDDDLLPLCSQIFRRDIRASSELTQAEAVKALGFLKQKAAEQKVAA

[6] = biological target: T6, Redβ V77A (Bacteriophage λ (Enterobacteria phage λ), UniProt P03698 1-261, V77A)
T6 sequence: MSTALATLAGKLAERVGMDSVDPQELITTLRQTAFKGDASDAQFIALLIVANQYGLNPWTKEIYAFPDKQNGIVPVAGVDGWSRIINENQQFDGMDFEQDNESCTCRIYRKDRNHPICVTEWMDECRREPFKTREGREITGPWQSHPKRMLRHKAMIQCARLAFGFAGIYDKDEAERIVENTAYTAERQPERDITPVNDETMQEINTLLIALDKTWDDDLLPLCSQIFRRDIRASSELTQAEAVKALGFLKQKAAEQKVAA

With TGCGGATGGCTTAGAGCTTAATTGCTGAATCTGGTGCTGTAGCTCAACAT (ssDNA) [50-minus ssDNA] the binding signal [1] was 82 % of WT binding at 3 µM protein, the binding signal [2] was 21 % of WT binding at 3 µM protein and the binding signal [3] was 44 % of WT binding at 3 µM protein. The binding signal [4] was 13 % of WT binding at 3 µM protein, the binding signal [5] was 87 % of WT binding at 3 µM protein and the binding signal [6] was 11 % of WT binding at 3 µM protein.
